Laboratory results: patent US20260193334A1 (ZOETIS SERVICES, published 2026)
Residue numbers refer to the chain shown, from its start. Numbers in names are those of the source. Values belong to the binder of their own block, whether it stands above or below them.

Tests used:
[1] = target: TGFβ (target protein of mAb3); assay: cell-based or functional assay
[2] = target: T1, canine FcRn complex (FcRn-α subunit and β-microglobulin) (canine, UniProt A0A8I3PFR8 25-347, biotin labeled through BirA enzymatic reaction in Example 5); assay: SPR (Biacore), FcRn amine-coupled on CM5, IgG as analyte, pH 6, 15 C
[3] = target: T1, canine FcRn complex (FcRn-α subunit and …); assay: SPR (Biacore), FcRn amine-coupled on CM5, IgG as analyte, pH 7.2, 15 C
[4] = target: IL-31 (target protein of mAb1); assay: cell-based or functional assay
[5] = target: NGF (target protein of mAb2); assay: cell-based or functional assay
[6] = target: canine FcRn complex (FcRn-α subunit and β-microglobulin) (canine); assay: SPR (Biacore), FcRn amine-coupled on CM5, IgG as analyte, pH 6, 15 C
[7] = target: canine FcRn complex (FcRn-α subunit and β-microglobulin) (canine); assay: SPR (Biacore), FcRn amine-coupled on CM5, IgG as analyte, pH 7.2, 15 C

T1 sequence (A0A8I3PFR8 entry or part of it, one chain of several): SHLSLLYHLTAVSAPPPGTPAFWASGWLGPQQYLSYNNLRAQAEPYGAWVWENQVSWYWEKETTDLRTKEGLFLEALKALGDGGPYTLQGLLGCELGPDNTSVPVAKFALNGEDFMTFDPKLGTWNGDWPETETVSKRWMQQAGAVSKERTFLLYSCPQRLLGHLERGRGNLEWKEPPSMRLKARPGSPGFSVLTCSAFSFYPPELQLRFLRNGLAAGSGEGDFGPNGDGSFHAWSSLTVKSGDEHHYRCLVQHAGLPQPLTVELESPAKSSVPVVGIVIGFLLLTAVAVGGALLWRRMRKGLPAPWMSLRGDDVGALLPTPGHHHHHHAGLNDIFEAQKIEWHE

- IC50 (cell based potency assay) [1]: 0.13 µg/mL
- Kd [2]: 523 nM
B1: anti-TGFβ antibody ZTS-4155, canine IgGB (65), wild-type (antibody)
heavy: EVQLVQSGAEVKKPGASVKVSCKTSGYTFITYWMNWVRQAPGAGLDWMGQIFPASGSTNYNEMFEGRVTLTADTSTSTAYMELSSLRAGDIAVYYCARGDGNYALDAMDYWGQGTLVTASTTAPSVFPLAPSCGSTSGSTVALACLVSGYFPEPVTVSWNSGSLTSGVHTFPSVLQSSGLYSLSSMVTVPSSRWPSETFTCNVAHPASKTKVDKPVPKRENGRVPRPPDCPKCPAPEMLGGPSVFIFPPKPKDTLLIARTPEVTCVVVDLDPEDPEVQISWFVDGKQMQTAKTQPREEQFNGTYRVVSVLPIGHQDWLKGKQFTCKVNNKALPSPIERTISKARGQAHQPSVYVLPPSREELSKNTVSLTCLIKDFFPPDIDVEWQSNGQQEPESKYRTTPPQLDEDGSYFLYSKLSVDKSRWQRGDTFICAVMHEALHNHYTQESLSHSPGK
VL: DIVMTQTPPSLSVSPRETASISCRASESVDSYGNSFMHWYLQKPGQSPQLLIYLASNLESGVSDRFSGSGSGTDFTLRISRVEANDTGVYYCQQNNEDPLTFGQ
notes: built here as variable domain plus IgGB constant domain; also called mAb3 WT

- Kd [3]: 38.6 nM
- Kd [2]: 1.56 nM
B2: anti-TGFβ antibody ZTS-4155, canine IgGB (65), N434Y (antibody)
chain 1: EVQLVQSGAEVKKPGASVKVSCKTSGYTFITYWMNWVRQAPGAGLDWMGQIFPASGSTNYNEMFEGRVTLTADTSTSTAYMELSSLRAGDIAVYYCARGDGNYALDAMDYWGQGTLVTVSSASTTAPSVFPLAPSCGSTSGSTVALACLVSGYFPEPVTVSWNSGSLTSGVHTFPSVLQSSGLYSLSSMVTVPSSRWPSETFTCNVAHPASKTKVDKPVPKRENGRVPRPPDCPKCPAPEMLGGPSVFIFPPKPKDTLLIARTPEVTCVVVDLDPEDPEVQISWFVDGKQMQTAKTQPREEQFNGTYRVVSVLPIGHQDWLKGKQFTCKVNNKALPSPIERTISKARGQAHQPSVYVLPPSREELSKNTVSLTCLIKDFFPPDIDVEWQSNGQQEPESKYRTTPPQLDEDGSYFLYSKLSVDKSRWQRGDTFICAVMHEALHYHYTQESLSHSPGK
chain 2: DIVMTQTPPSLSVSPRETASISCRASESVDSYGNSFMHWYLQKPGQSPQLLIYLASNLESGVSDRFSGSGSGTDFTLRISRVEANDTGVYYCQQNNEDPLTFGQGTKLEIKRNDAQPAVYLFQPSPDQLHTGSASVVCLLNSFYPKDINVKWKVDGVIQDTGIQESVTEQDKDSTYSLSSTLTMSSTEYLSHELYSCEITHKSLPSTLIKSFQRSEC

- IC50 (cell based potency assay) [4]: 1.1 nM
- Kd [2]: 15 to 24.4 nM
B3: caninized anti-IL31 antibody 34D03, canine IgGB (65), wild-type (antibody)
heavy: EVQLVESGGDLVKPGGSLRLSCVASGFTFSNYGMSWVRQAPGKGLQWVATISYGGSYTYYPDNIKGRFTISRDNAKNTLYLQMNSLRAEDTAMYYCVRGYGYDTMDYWGQGTLVTVSSASTTAPSVFPLAPSCGSTSGSTVALACLVSGYFPEPVTVSWNSGSLTSGVHTFPSVLQSSGLYSLSSMVTVPSSRWPSETFTCNVAHPASKTKVDKPVPKRENGRVPRPPDCPKCPAPEMLGGPSVFIFPPKPKDTLLIARTPEVTCVVVDLDPEDPEVQISWFVDGKQMQTAKTQPREEQFNGTYRVVSVLPIGHQDWLKGKQFTCKVNNKALPSPIERTISKARGQAHQPSVYVLPPSREELSKNTVSLTCLIKDFFPPDIDVEWQSNGQQEPESKYRTTPPQLDEDGSYFLYSKLSVDKSRWQRGDTFICAVMHEALHNHYTQESLSHSPGK
VL: EIVMTQSPASLSLSQEEKVTITCKASQSVSFAGTGLMHWYQQKPGQAPKLLIYRASNLEAGVPSRFSGSGSGTDFSFTISSLEPEDVAVYYCQQSREYPWTFGQGTKLEIK
notes: also called mAb1 WT; ID No. 8

- IC50 (cell based potency assay) [4]: 0.99 nM
- Kd [3]: 5000 nM
- Kd [2]: 0.7 to 1.3 nM
B4: caninized anti-IL31 antibody 34D03, canine IgGB (65), N434H (antibody)
heavy: B3 heavy with N440H
VL: B3 VL
notes: also called mAb1 N434H; ID No. 31

- IC50 (cell based potency assay) [5]: 23.7 nM
- Kd [6]: 57.2 nM
B5: caninized anti-NGF antibody mAb2 of Tables 1-3, canine IgGB (65), wild-type (antibody, part only; not given: Anti-NGF heavy and light variable domains, part only)
heavy, part: ASTTAPSVFPLAPSCGSTSGSTVALACLVSGYFPEPVTVSWNSGSLTSGVHTFPSVLQSSGLYSLSSMVTVPSSRWPSETFTCNVAHPASKTKVDKPVPKRENGRVPRPPDCPKCPAPEMLGGPSVFIFPPKPKDTLLIARTPEVTCVVVDLDPEDPEVQISWFVDGKQMQTAKTQPREEQFNGTYRVVSVLPIGHQDWLKGKQFTCKVNNKALPSPIERTISKARGQAHQPSVYVLPPSREELSKNTVSLTCLIKDFFPPDIDVEWQSNGQQEPESKYRTTPPQLDEDGSYFLYSKLSVDKSRWQRGDTFICAVMHEALHNHYTQESLSHSPGK

- IC50 (cell based potency assay) [5]: 20.9 nM
- Kd [6]: 7.3 nM
- Kd [7]: 1300 nM
B6: caninized anti-NGF antibody mAb2 of Tables 1-3, canine IgGB (65), N434H (antibody, part only; not given: Anti-NGF heavy and light variable domains, part only)
heavy, part: B5 heavy, part with N322H
